The target in the experiment is T1, Macrophage stimulating protein receptor (RON - Recepteur d' Origine Nantais), human (human, UniProt Q04912 25-1400).
T1 construct: whole, on cells; Endogenous RON of human cancer cell lines (HCT116, HT29, T47D and others) or RON transfected into H1299 cells; In Western blots and immunoprecipitations it comes from cell lysates; also called human RON receptor tyrosine kinase; MST1R
The experiment can be described thus: immunofluorescence on PFA fixed HCT116 cells. Here is the method: Cells were stained with DAPI for nuclear visualization and anti-mouse conjugate to 488 was used as a secondary mouse antibody.
The 4% paraformaldehyde fixed HCT116 and TKO cells were subjected to permeabilization with 0.4% Triton X-100 for 20 minutes. After rinsing with PBS, cells were blocked with 5% BSA in PBSTritonX (PBSTX) for 20 min, followed by overnight incubation in hybridoma supernatant at 4° C. IgGs were detected using 1:1000 […] Alexaflor 488 Donkey anti-mouse IgG conjugated (Life technologies) in PBSTX with 1% BSA. Subsequently, cells were counterstained with DAPI, and viewed with Incell Analyzer (GE Healthcare).

The text below walks through data of patent publication US20190194309A1 (AGENCY FOR SCIENCE TECHNOLOGY AND RESEARCH, published 2019).

B1: 7G8 (antibody, V domains shown)
VH: EVQLEQSGGGLVQPGGSLKLSCAASGFTFNTYTMSWVRQTPEKRLEWVAYISNGGGSTYYPDTVKGRFTISRDNAKNTLYLQMSSLKSEDTAMYYCARGYRYAAMDYWGQGTSVTVSS
VL: DIVMTQTTATLSVTPGDGVSLSCRASQSINNNLHWYQQKSHESPRLLIKFASQSISGIPSRFSGSGSGTDFTLSINSVETEDFGMYFCQQSNSWPLTFGAGTKLELK
notes: Mouse monoclonal antibody from a hybridoma (Balb/c mice immunised with truncated human RON-GST); kappa light chain; Tested as hybridoma supernatant or purified mAb; also called mAb 7G8; anti-RON mouse mAb 7G8
As to B1, the binding result is “binds”.
